± gives the standard deviation of the averaged measurements.
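Further: ATP exposure 15 min at 22 °C before imaging.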

The data set has as its system ATP. The experiment in a line: switch fluorescence ratio, 500 uM ATP over buffer (Cy3 cluster intensity, sum of 5 cycles each) (fold (ratio)); higher = stronger signal-on switching upon ATP binding; sequences stand for … in TCGTCGGCAGCGTCAGATGTGTATAAGAGACAGTTTTTTTTTTTTTTTTTTTTTTTTT…TC. The note with it: aptamer strand: ATP DNA aptamer (quencher-CACCTGGGGGAGTATTGCGGAGGAAGG + anchor), 100 nM annealed; ATP concentration: 500 uM. An outline of the steps:
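After annealing to 100 nM quencher-labelled ATP aptamer, Cy3-labelled switching-strand clusters on a modified Illumina MiSeq flow-cell were imaged in selection buffer. A second image followed after 15 min with 500 uM ATP at 22 °C, and five such buffer/ATP cycles were done, each separated by NaOH stripping and re-annealing. The fluorescence ratio, averaged per switch-domain sequence, is summed target-cycle over summed buffer-cycle Cy3 intensity per cluster, with clusters outside 100-1000 RFU excluded.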
Consider GTCGAAAGGT, for which the switch fluorescence ratio stood at 0.984 ± 0.019.

In the case of GACCGGCGGT, the switch fluorescence ratio came out at 0.996 ± 0.035. Consider TTTTTTACCG, for which the switch fluorescence ratio stood at 1.02 ± 0.04. With TTTCTCGATG, the switch fluorescence ratio was 1.011 ± 0.0072.

For TTTGTATACA, the switch fluorescence ratio is 1.01 ± 0.015. With TTTTTAGACT the figure was 1 ± 0.038.

Regarding CTTAACTTGA, the switch fluorescence ratio amounted to 1 ± 0.025. Next, CGTAATGCTT: 1.17 ± 0.032; AAACTCTTTT: 0.978 ± 0.039; GGTGGGGTGA: 0.9856 ± 0.0078.

Regarding TCAGAGGGGC, the switch fluorescence ratio turned out to be 0.9913 ± 0.0095. As to TTCGGGGTGC, the switch fluorescence ratio worked out at 2.17 ± 1.6. As for GAAGGAATCG, the switch fluorescence ratio was found to be 0.995 ± 0.048. As for GGTTACGGGT, the switch fluorescence ratio came to 0.994 ± 0.057. For TGGGACATGT, the switch fluorescence ratio worked out at 1.02 ± 0.019. With CGGTGATCGT, the switch fluorescence ratio came to 1.02 ± 0.015. For the sequence GTGTGTAATT, the switch fluorescence ratio was 1.01 ± 0.059.

In the case of ACCACGGGAA, the switch fluorescence ratio was 1.05 ± 0.032. Next, GCGCTTGTAC: 2.36 ± 0.55; GAAATGGGGA: 1 ± 0.017. With GTGTTGAGGT the figure was 0.984 ± 0.022. With GTCGATAGCG the figure was 0.984 ± 0.015; with GGGGGGTAAT, 1.01 ± 0.026. For the sequence GGCGACAGAG, the switch fluorescence ratio was 1.04 ± 0.051. Next, CCAGGGATCA: 1.049 ± 0.0023. With TTATATGGTG the figure was 0.98 ± 0.041. With TAGAAATTAA the figure was 0.977 ± 0.019; with AACGTTGGGC, 1.03 ± 0.059; with CTTCTCAGTA, 1.03 ± 0.048. Turning to AGGTAGAAGT, the switch fluorescence ratio stood at 1.03 ± 0.012. With TATGTGGGGA the figure was 1.02 ± 0.027; with AAGCAGATAG, 1.46 ± 0.048; with TAGTGCTTTT, 1.01 ± 0.025.

For ATTTAGTTTC, the switch fluorescence ratio came to 0.976 ± 0.026. With CAGGGCAGGG the figure was 0.951 ± 0.028; with CCACTTAGGG, 1.01 ± 0.021; with GGGTGGGTAT, 1 ± 0.027. With AAATTTGGCT the figure was 0.992 ± 0.071; with CCGTTCTGGG, 0.9786 ± 0.0026; with TTAAACGGGG, 1.01 ± 0.035. Next, TTTGGGACTC: 0.9731 ± 0.0023. AAAGGATGGT: the switch fluorescence ratio was 0.953 ± 0.022. Next, ATGGAATGAG: 0.998 ± 0.012; ATTTTGGATG: 0.996 ± 0.025; TACAGCTTAA: 1.022 ± 0.0019. Next, TTAAAGTTTG: 1.06 ± 0.063. With TTTGAGATCT, the switch fluorescence ratio was 0.989 ± 0.027. As to CATAAGGTCG, the switch fluorescence ratio is 1.03 ± 0.083. Next, AGCCGTCCCC: 0.993 ± 0.02; CCTTAGGGGC: 1.03 ± 0.026; GAAATTAGTG: 1.01 ± 0.039. Next, TCCTTGGGGT: 1.73 ± 0.97; CGCGTTCCGT: 1.03 ± 0.019. With TTAAAACCCC the figure was 1.04 ± 0.054; with TCATGTTCGT, 1.08 ± 0.15; with AGGGGCTCGT, 1 ± 0.012.

CGACCATAGC: the switch fluorescence ratio worked out at 1.84 ± 0.19. Next, TCATCGGGGA: 1.01 ± 0.028; TCCTTTTAAT: 1.045 ± 0.0012.

As to GGGTATCGTT, the switch fluorescence ratio is 0.965 ± 0.027.

With TATATGAATA, the switch fluorescence ratio is 1.006 ± 0.0023. Next, GGACGTATTA: 1.03 ± 0.051; TGCTGAGACA: 1.01 ± 0.012. With TTGGGAGCTG the figure was 1.021 ± 0.0068; with TGCTGCAAAG, 0.9943 ± 0.0049; with CATTTTGGTT, 0.995 ± 0.036. On to CCTTTTGGAT, for which the switch fluorescence ratio is 1.07 ± 0.073. TAATCCCGGG: the switch fluorescence ratio came to 1.3 ± 0.4.

For GTTGGAATCG, the switch fluorescence ratio amounted to 0.991 ± 0.018. Turning to CAATGGAAGA, the switch fluorescence ratio is 0.989 ± 0.014. With ATAATGTATC the figure was 1.03 ± 0.018. For GGAGGGGGTA, the switch fluorescence ratio was 1.01 ± 0.016. In the case of GTGGGGTACT, the switch fluorescence ratio stood at 0.9612 ± 0.0055. With ATATTAAAAT the figure was 1.02 ± 0.021; with TTCATGGGT, 1.017 ± 0.0054; with TTGGGTTCAA, 1.4 ± 0.52.

For the sequence GATGTGAGGC, the switch fluorescence ratio was found to be 1.14 ± 0.046. With TTCAGATCCG the figure was 0.967 ± 0.0076.

For the origin of these results see the supplement of paper PMC10126150.
